Measured values as given in publication PMC8184782 (Nature Communications, 2021).

Biological target: the molecule itself
Assay: non-reducing SDS-PAGE; MDFs treated with TSZ, lysed in DISC lysis buffer; loading dye without beta-mercaptoethanol, immunoblot for MLKL; intermolecular disulfide bonds stabilise the trimer

B1: mixed lineage kinase domain-like (MLKL) pseudokinase, mouse, wild type, endogenous (natural protein, mouse (endogenous in MDFs), UniProt Q9D2Y4-2 1-464, looked up)
chain: MDKLGQIIKLGQLIYEQCEKMKYCRKQCQRLGNRVHGLLQPLQRLQAQGKKNLPDDITAALGRFDEVLKEANQQIEKFSKKSHIWKFVSVGNDKILFHEVNEKLRDVWEELLLLLQVYHWNTVSDVSQPASWQQEDRQDAEEDGNENMKVILMQLQISVEEINKTLKQCSLKPTQEIPQDLQIKEIPKEHLGPPWTKLKTSKMSTIYRGEYHRSPVTIKVFNNPQAESVGIVRFTFNDEIKTMKKFDSPNILRIFGICIDQTVKPPEFSIVMEYCELGTLRELLDREKDLTMSVRSLLVLRAARGLYRLHHSETLHRNISSSSFLVAGGYQVKLAGFELSKTQNSISRTAKSTKAERSSSTIYVSPERLKNPFCLYDIKAEIYSFGIVLWEIATGKIPFEGCDSKKIRELVAEDKKQEPVGQDCPELLREIINECRAHEPSQRPSVDGILERLSAVEESTDKKV
modifications: after TSZ: phosphorylated at S345; K63-linked ubiquitin chains, Ub acceptor lysines K51, K77, K172 and K219
notes: MLKL, mouse, endogenous in MDFs; Oligomers are seen only in cells treated with TNF/SM-164/z-VAD-FMK (TSZ); also called mMLKL; MLKL^WT; source: endogenous, mouse dermal fibroblasts (MDFs), in lysate or digitonin membrane fraction, after TSZ treatment
In the case of B1, the “stoichiometry N” value is reported as 3.
